*1 amine or outer side, *2 acyl side, *3 side chain or, on linkers, in order; H or OH if unused. Where no end group is shown, it is not given here. Side-chain parts run from the residue outwards. [ ]: non-standard residue; d: D form. The star is where a group is joined. C20 diacid = O=C(O)CCCCCCCCCCCCCCCCCCC(=O)*; C18 diacid = O=C(O)CCCCCCCCCCCCCCCCC(=O)*; γGlu = O=C(O)[C@H](CCC(=O)[*:2])N[*:1]; εLys = N[C@@H](CCCCN[*:1])C(=O)[*:2]; dOR = not defined here; Aib = CC(C)(N)C(=O)O
T1: human GIP receptor (human, UniProt P48546 22-466)
T1 sequence (looked up): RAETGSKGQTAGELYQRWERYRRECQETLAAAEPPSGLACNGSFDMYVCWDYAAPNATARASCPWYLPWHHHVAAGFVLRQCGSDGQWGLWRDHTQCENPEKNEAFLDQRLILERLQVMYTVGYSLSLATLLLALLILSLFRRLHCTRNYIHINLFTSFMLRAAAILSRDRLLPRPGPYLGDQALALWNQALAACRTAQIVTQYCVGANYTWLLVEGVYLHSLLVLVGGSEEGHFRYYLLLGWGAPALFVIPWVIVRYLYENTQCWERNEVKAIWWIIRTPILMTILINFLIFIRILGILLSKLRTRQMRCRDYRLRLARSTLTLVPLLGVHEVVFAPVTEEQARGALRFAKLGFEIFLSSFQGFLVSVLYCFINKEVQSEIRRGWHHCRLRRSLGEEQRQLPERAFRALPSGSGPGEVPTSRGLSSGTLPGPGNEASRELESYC

T2: human neuropeptide Y2 receptor (human, UniProt P49146 1-381)
T2 sequence (looked up): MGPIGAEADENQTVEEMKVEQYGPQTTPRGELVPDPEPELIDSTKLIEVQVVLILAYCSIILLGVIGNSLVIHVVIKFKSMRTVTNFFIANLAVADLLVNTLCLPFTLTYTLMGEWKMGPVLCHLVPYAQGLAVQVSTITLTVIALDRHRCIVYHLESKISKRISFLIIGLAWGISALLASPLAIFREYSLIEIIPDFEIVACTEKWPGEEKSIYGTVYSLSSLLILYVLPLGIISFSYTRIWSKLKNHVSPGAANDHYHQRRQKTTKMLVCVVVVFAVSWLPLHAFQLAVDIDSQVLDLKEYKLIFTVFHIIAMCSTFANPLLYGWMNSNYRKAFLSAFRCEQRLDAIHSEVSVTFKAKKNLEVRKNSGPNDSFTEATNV


Key:
Test in all cases: cell-based or functional assay
human GLP-1 receptor = human GLP-1 receptor (human, UniProt P43220 24-463)
human GIP receptor = molecular target: T1, human GIP receptor
[1] = molecular target: T2, human neuropeptide Y2 receptor

Row | Binder | EC50, CreLuc reporter, 0.5% hP (human GLP-1 receptor) [nM] | EC50, CreLuc reporter, 0.5% hP (human GIP receptor) [nM] | EC50, CreLuc reporter, 0.5% hP [1] [nM] | EC50, CreLuc reporter, 100% hP [1] [nM] | EC50, CreLuc reporter, 100% hP (human GLP-1 receptor) [nM] | EC50, CreLuc reporter, 100% hP (human GIP receptor) [nM]
1 | Y[Aib]EGTFTSDYSI[Aib]LEKQAQ[Aib]AFVRHLINK([γGlu-γGlu-γGlu-γGlu-γGlu-γGlu-C18 diacid])LTRQRY-NH2 [Compound 12] | 1.8 | 0.8 | 47.6 | 140 | – | –
2 | Y[Aib]EGTFTSDYSI[Aib]LEKQAQ[Aib]AFVRHLINK([γGlu-γGlu-γGlu-γGlu-γGlu-γGlu-C20 diacid])[Aib]TRQRY-NH2 [Compound 3] | 3 | 0.7 | 37.9 | 147 | 13.9 | –
3 | Y[Aib]EGTFTSDYSI[Aib]LEKQAQ[Aib]AFVRHLINK([γDab-γGlu-γGlu-γGlu-γGlu-γGlu-γGlu-C20 diacid])[Aib]TRQRY-NH2 [Compound 46] | – | 0.8 | 28.4 | 70.5 | 5.3 | 7.2
4 | YXEGTFTSDLSIXLEKQAQXAFIRHLINKXTRQRY (Aib at 2, 13, 20, 30; Lys29 epsilon-amino acylated with C20DA-gGlu-gGlu-gGlu-gGlu-gGlu-gGlu-eLys; C-terminal amide) [Compound 21] | 4.8 | 0.2 | 6.5 | 111 | 13.9 | 5.6
5 | YXEGTFTSDYSIXLEKQEQXAFVRHLINKXTRQRY (Aib at 2, 13, 20, 30; Lys29 epsilon-amino acylated with C18DA-gGlu-gGlu-gGlu-gGlu-gGlu-gGlu-eLys; C-terminal amide) [Compound 36] | – | 8.8 | 30.1 | 95.2 | 16.9 | 41.4
6 | YXEGTFTSDYSIXLDKIAQXAFVRHLINKXTRQRY (Aib at 2, 13, 20, 30; Lys29 epsilon-amino acylated with C18DA-gGlu-gGlu-gGlu-gGlu-gGlu-gGlu-eLys; C-terminal amide) [Compound 33] | 0.1 | 0.7 | – | – | 1 | 18.7
7 | YXEGTFTSDYSIXLEKQAQXAFLRHLINKXTRQRY (Aib at 2, 13, 20, 30; Lys29 epsilon-amino acylated with C18DA-gGlu-gGlu-gGlu-gGlu-gGlu-gGlu-eLys; C-terminal amide) [Compound 37] | 5.8 | – | 11.9 | 41.3 | 9.1 | 15.5
8 | YXEGTFTSDYSIXLDKQAQXAFVRHLINKXTRQRY (Aib at 2, 20, 30; aMeL at 13; Lys29 epsilon-amino acylated with C18DA-gGlu-gGlu-gGlu-gGlu-gGlu-gGlu-eLys; C-terminal amide) [Compound 67] | 0.1 | 0.1 | 18.1 | 112 | 0.6 | 1.7
9 | YXEGTFTSDYSIXLEKQAQXAFVRHLIAKXTRQRY (Aib at 2, 13, 20, 30; Lys29 epsilon-amino acylated with C18DA-gGlu-gGlu-gGlu-gGlu-gGlu-gGlu-eLys; C-terminal amide) [Compound 68] | 0.6 | 0.2 | 150 | 690 | 3.3 | 3
10 | YXEGTFTSDYSIXLEKQAQXAFVRHLINKLTRQRY (Aib at 2, 13, 20; Lys29 epsilon-amino acylated with C20DA-gGlu-gGlu-gGlu-gGlu-gGlu-gGlu-eLys; C-terminal amide) [Compound 27] | – | 0.6 | – | 69.1 | 20.8 | 16.3
11 | YXEGTFTSDYSIXLEKEAQXAFVRHLINKXTRQRY (Aib at 2, 13, 20, 30; Lys29 epsilon-amino acylated with C20DA-gGlu-gGlu-gGlu-gGlu-gGlu-gGlu-eLys; C-terminal amide) [Compound 28] | 8 | 19.3 | 24 | 297 | 14.8 | 208
12 | YXEGTFTSDYSIXLDKQAQXAFIRHLINKXTRQRY (Aib at 2, 13, 20, 30; Lys29 epsilon-amino acylated with C20DA-gGlu-gGlu-gGlu-gGlu-gGlu-gGlu-eLys; C-terminal amide) [Compound 81] | 0.6 | 0.5 | 7.2 | 52.4 | 3.8 | –
13 | YXEGTFTSDYSIXLEKQAQXEFVRHLINKXTRQRY (Aib at 2, 13, 20, 30; Lys29 epsilon-amino acylated with C18DA-gGlu-gGlu-gGlu-gGlu-gGlu-AHX; C-terminal amide) [Compound 14] | 0.3 | 0.1 | 16.8 | 388 | – | –
14 | YXEGTFTSDYSIXLEKQAQXAFVRHLINKITRQRY (Aib at 2, 13, 20; Lys29 epsilon-amino acylated with C18DA-gGlu-gGlu-gGlu-gGlu-gGlu; C-terminal amide) [Compound 41] | 0.9 | 0.3 | 49.2 | 71.3 | 5 | 7.1
15 | YXEGTFTSDYSIXLEKQAQXEFVRHLINKLTRQRY (Aib at 2, 13, 20; Lys29 epsilon-amino acylated with C18DA-gGlu-gGlu-gGlu-gGlu-gGlu-AHX; C-terminal amide) [Compound 45] | 0.5 | 0.3 | 19.8 | 224 | – | 19.6
16 | YXEGTFTSDYSIXLDKQAQXAFVRHLINKXTRQRY (Aib at 2, 13, 20, 30; Lys29 epsilon-amino acylated with C20DA-gGlu-gGlu-gGlu-gGlu-gGlu-gGlu-eLys; C-terminal amide) [Compound 74] | 0.4 | 0.5 | 7.1 | 90.6 | 3.3 | –
17 | YXEGTFTSDYSIXLDKQAQXAFIRHLINKXTRQRY (Aib at 2, 20, 30; aMeL at 13; Lys29 epsilon-amino acylated with C20DA-gGlu-gGlu-gGlu-gGlu-gGlu-gGlu-eLys; C-terminal amide) [Compound 22] | 0.2 | 0.1 | 8.8 | 72 | 0.6 | –
18 | Y[Aib]EGTFTSDYSI[Aib]LEKQAQ[Aib]EFVRHLINK([γGlu-γGlu-γGlu-γGlu-γGlu-γGlu-C18 diacid])[Aib]TRQRY-NH2 [Compound 56] | – | 0.4 | – | – | 7.1 | 19.3
19 | Y[Aib]EGTFTSDYSI[Aib]LDKQAQ[Aib]AFVRHLINK([εLys-γGlu-γGlu-γGlu-γGlu-γGlu-γGlu-γGlu-C20 diacid])[Aib]TRQ[dOR]Y-NH2 (reading uncertain) [Compound 16] | 0.7 | 0.5 | – | 59.1 | 1.8 | 2
20 | Y[Aib]EGTFTSDLSI[Aib]LEKQAQ[Aib]AFVRHLINK([γGlu-γGlu-γGlu-γGlu-γGlu-γGlu-C20 diacid])[Aib]TRQRY-NH2 [Compound 51] | 4.5 | 0.5 | – | – | 16.3 | 13.8
